Laboratory results reported in publication PMC2173242 (The Journal of Cell Biology, 2002).

Target: Human recombinant His6-tagged Hsp70 (human, UniProt P0DMV8 1-641)
Experiment: pull-down

Chain of Human recombinant His6-tagged Hsp70 (P0DMV8 whole entry): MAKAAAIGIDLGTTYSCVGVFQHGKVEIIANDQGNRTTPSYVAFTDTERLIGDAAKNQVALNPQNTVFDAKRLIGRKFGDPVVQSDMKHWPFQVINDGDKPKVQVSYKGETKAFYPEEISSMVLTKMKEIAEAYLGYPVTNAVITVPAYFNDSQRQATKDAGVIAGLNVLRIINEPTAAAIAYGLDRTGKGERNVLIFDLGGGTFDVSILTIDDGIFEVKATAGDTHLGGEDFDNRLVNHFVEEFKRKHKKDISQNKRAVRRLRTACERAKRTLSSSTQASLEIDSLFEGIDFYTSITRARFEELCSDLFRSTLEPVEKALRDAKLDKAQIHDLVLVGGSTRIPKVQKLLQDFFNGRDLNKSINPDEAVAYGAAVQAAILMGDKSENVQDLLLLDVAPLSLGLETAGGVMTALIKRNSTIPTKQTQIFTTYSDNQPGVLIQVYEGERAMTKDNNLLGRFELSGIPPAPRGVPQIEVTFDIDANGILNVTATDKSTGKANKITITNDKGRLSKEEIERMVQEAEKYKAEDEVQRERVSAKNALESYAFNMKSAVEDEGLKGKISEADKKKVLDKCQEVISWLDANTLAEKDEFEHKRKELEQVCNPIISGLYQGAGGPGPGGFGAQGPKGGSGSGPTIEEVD

B1: Peptide C (peptide)
peptide: GCEVFGLGWRSYKH
  ka (saturation of the effect of peptide C on binding of Hsp70-ADP to GST-CD40): ~30 µM
